The supplement of paper PMC7877785
± gives the uncertainty stated by the source.

Assay: self-splicing fitness, log relative to wild type (ln ratio); higher = more splicing; Tetrahymena group I intron in knt gene, E. coli kanamycin selection, DiMSum; sequences stand for … in CUCUCU…GGAGGGAAAAGUUAUCAGGCAUGCACCUGGUAGCUAGUCUUUAAACCAAUAGAUUGCAUCGGUUUAAAAGGCAAGACCGUCAAAUUGCGGGAAAGGGGUCAACAGCCGUUCAGUACCAAGUCUCAGGGGAAACUUUGAGAUGGCCUUGCAAAGGGUAUGGUAAUAAGCUGACGGACAUGGUCCUAACCACGCAGCCAAGUCCUAAGUCAACAGAUCUUCUGUUGAUAUGGAUGCAGUUCACAGACUAAAUGUCGGUCGGGGAAGAUGUAUUCUUCUCAUAAGAUAUAGUCGGACCUCUCCUUAAUGGGAGCUAGCGGAUGAAGUGAUGCAACACUGGAGCCGCUGGGAACUAAUUUGUAUGCGAAAGUAUAUUGAUUAGUUUUGGAGUACUCGUGGUCG
In short: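 Fitness was computed with DiMSum as the error-weighted combination of replicate fold changes, kanamycin versus none, each normalised to wild type. The library randomised all eight intron nucleotides of the P1ex region, with the intron placed in the knt kanamycin-resistance gene on pET-22b(+) in E. coli BL21(DE3). Six replicate transformations were grown overnight at 37°C or 30°C on LB agar with or without 25 μg/mL kanamycin, plus 100 μg/mL carbenicillin, 50 μM IPTG and 0.2% rhamnose. Pooled colonies were amplicon-sequenced on an Illumina HiSeq 2500.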

Row | Sequence | self-splicing fitness (ln) (30 °C) | self-splicing fitness (ln) (37 °C)
1 | CGGUAGCAAUAUUACGUACC | -3.27 ± 0.4 | -1.89 ± 0.3
2 | CGGUAGCAAUAUUACGUAGA | -1.73 ± 0.053 | -1.89 ± 0.082
3 | CGGUAGCAAUAUUACGUAGC | -3.25 ± 0.2 | -3.13 ± 0.27
4 | CGGUAGCAAUAUUACGUAGU | -2.59 ± 0.13 | -1.34 ± 0.16
5 | CGGUAGCAAUAUUACGUCGU | -3.85 ± 0.22 | -2.02 ± 0.24
6 | CGGUAGCAAUAUUACGUGCU | -3.24 ± 0.28 | -2.51 ± 0.29
7 | CGUAAGCAAUAUUACGACAU | -3.255 ± 0.022 | -1.8 ± 0.035
8 | CGUAAGCAAUAUUACGAGGU | -3.63 ± 0.46 | -1.71 ± 0.29
9 | CGUAAGCAAUAUUACGAUGG | -1.37 ± 0.097 | -0.574 ± 0.13
10 | CGUAAGCAAUAUUACGAUGU |  | -1.57 ± 0.16
11 | CGUAAGCAAUAUUACGAUUC | -3 ± 0.13 | -2.52 ± 0.16
12 | CGUAAGCAAUAUUACGCAGC |  | -2.3 ± 0.39
13 | CGUAAGCAAUAUUACGCCAA | -3.24 ± 0.33 | -1.91 ± 0.4
14 | CGUAAGCAAUAUUACGCUCA | -1.2 ± 0.2 | -0.106 ± 0.18
15 | CGUAAGCAAUAUUACGCUGC |  | -2.3 ± 0.39
16 | CGUAAGCAAUAUUACGGACG | -2.45 ± 0.12 | -1.89 ± 0.14
17 | CGUAAGCAAUAUUACGGAUC | -3.4 ± 0.23 | -3.44 ± 0.37
18 | CGUAAGCAAUAUUACGGCCA | -2.86 ± 0.42 | -1.74 ± 0.21
19 | CGUAAGCAAUAUUACGGGAU | -3.63 ± 0.18 | -3.29 ± 0.35
20 | CGUAAGCAAUAUUACGGGUC | -4.24 ± 0.28 | -2.45 ± 0.2
21 | CGUAAGCAAUAUUACGGGUG | -1.64 ± 0.057 | -0.924 ± 0.057
22 | CGUAAGCAAUAUUACGUAUC | -3.12 ± 0.24 | -3.6 ± 0.24
23 | CGUAAGCAAUAUUACGUCUG | -0.285 ± 0.085 | 0.29 ± 0.1
24 | CGUAAGCAAUAUUACGUUAC | -3.56 ± 0.26 | -2.03 ± 0.28
25 | CGUAAGCAAUAUUACGUUCA | -1.64 ± 0.14 | -0.74 ± 0.13

Row | Sequence | self-splicing fitness (ln) (30 °C) | self-splicing fitness (ln) (37 °C)
26 | CGUAAGCAAUAUUACGUUCU | -1.61 ± 0.13 | -0.0321 ± 0.12
27 | CGUCAGCAAUAUUACGAACC | -1.37 ± 0.41 | 0.157 ± 0.37
28 | CGUCAGCAAUAUUACGAAGU | -3.92 ± 0.19 | -2.94 ± 0.21
29 | CGUCAGCAAUAUUACGAGAG | -2.91 ± 0.15 | -2.76 ± 0.25
30 | CGUCAGCAAUAUUACGCAGU | -2.96 ± 0.2 | -2.12 ± 0.18
31 | CGUCAGCAAUAUUACGCAUA | -2.88 ± 0.32 | -2.59 ± 0.19
32 | CGUCAGCAAUAUUACGCCUU |  | -1.94 ± 0.2
33 | CGUCAGCAAUAUUACGCGAA | -2.93 ± 0.21 | -2.51 ± 0.19
34 | CGUCAGCAAUAUUACGCGGG | -3.87 ± 0.24 | -2.94 ± 0.21
35 | CGUCAGCAAUAUUACGCUGC | -2.95 ± 0.26 | -2.22 ± 0.35
36 | CGUCAGCAAUAUUACGCUGU | -4.26 ± 0.33 | -1.51 ± 0.27
37 | CGUCAGCAAUAUUACGGAAA | -2.57 ± 0.3 | -2.38 ± 0.37
38 | CGUCAGCAAUAUUACGGACG | -3.63 ± 0.32 | -1.95 ± 0.23
39 | CGUCAGCAAUAUUACGGAUA | -1.02 ± 0.079 | -0.231 ± 0.086
40 | CGUCAGCAAUAUUACGGCCG | -0.623 ± 0.12 | 0.482 ± 0.15
41 | CGUCAGCAAUAUUACGUAUU | -2.83 ± 0.13 | -1.84 ± 0.14
42 | CGUCAGCAAUAUUACGUCCA | -1.97 ± 0.085 | -1.36 ± 0.11
43 | CGUCAGCAAUAUUACGUCUC | -2.87 ± 0.24 | -0.999 ± 0.14
44 | CGUCAGCAAUAUUACGUCUG | -0.234 ± 0.062 | 0.106 ± 0.08
45 | CGUCAGCAAUAUUACGUGAC | -3.29 ± 0.18 | -2.82 ± 0.23
46 | CGUCAGCAAUAUUACGUGGA | -3.65 ± 0.24 | -0.946 ± 0.17
47 | CGUCAGCAAUAUUACGUGGG | -2.31 ± 0.093 | -1.7 ± 0.1
48 | CGUCAGCAAUAUUACGUUAC | -2.78 ± 0.21 | -3.22 ± 0.24
49 | CGUCAGCAAUAUUACGUUUC | -3 ± 0.14 | -3.06 ± 0.21
